Assay results as given in patent US12692305 (REVERB THERAPEUTICS, dated 2026).

Assays:
human IL-15 [1] = target: T1, human IL-15 (human, UniProt P40933 49-162); assay: SPR, variant captured on anti-human Fc, IL-15 analyte, single-cycle kinetics, 1:1 fit
T1 construct: also called Premium grade IL-15; GMP grade human IL-15
Method: (§1) EDC: 1-ethyl-3-(3-dimethylaminopropyl) carbodiimide hydrochloride; NHS: N-Hydroxysuccinimide; SPR: surface plasmon resonance; EDTA: ethylenediaminetetraacetic acid SPR Supplies Series S Sensor Chip CM5, Biacore amine coupling kit (NHS, EDC and 1 M ethanolamine), and 10 mM sodium acetate buffers were purchased from Cytiva Life Sciences (Marlborough, MA). […] PBS running buffer with 1% Tween20 (PBST) was purchased from Teknova Inc. (Hollister, Calif.). Goat polyclonal anti-human Fc antibody was purchased from Jackson Immuno Research Laboratories Inc. (West Grove, Pa.). EDTA was purchased from Bioshop (Burlington, ON). All SPR assays were carried out using a Biacore T200 Surface Plasmon Resonance instrument (Cytiva Life Sciences, (Marlborough, MA)) with PBST running buffer (with 0.5 M EDTA stock solution added to 3.4 mM final concentration) at a temperature of 25° C. The anti-human Fc capture surface was generated using a Series S Sensor Chip CM5 using the default parameters under the Immobilization Wizard in the Biacore T200 control software which was set to target 3000 resonance units (RUs).
The first flow cell was left empty to use as a blank control. […] The captured antibody surfaces were regenerated twice by 10 mM Glycine pH1.5 for 30 seconds at 30 μL/min. Buffer injections were performed for each analyte injection to be used for referencing.

human PD-1 [2] = target: T2, human PD-1 (human, UniProt Q15116 25-167, limits assumed); assay: SPR, variant as analyte over immobilised PD1
T2 construct: Recombinant protein used in SPR as analyte or amine-coupled ligand; also called PD1 antigen

human IL-15 [3] = target: T1, human IL-15; assay: SPR, variant captured on immobilised PD1, IL-15 analyte, single-cycle kinetics, 1:1 fit
human PD-1 [4] = target: T2, human PD-1; assay: SPR, variant as analyte over immobilised PD1 (avidity possible)
human PD-1 [5] = target: T2, human PD-1; assay: SPR, variant captured on protein A, PD1 analyte
Method: as §1, with “The anti-human Fc capture surface was generated using a Series S Sensor Chip CM5 using the default parameters under the Immobilization Wizard in the Biacore T200 control software which was set to target 3000 resonance units (RUs).” left out
The first flow cell was left empty to use as a blank control. […] Buffer injections were performed for each analyte injection to be used for referencing.

human PD-1 [6] = target: T2, human PD-1; assay: SPR, variant as analyte over immobilised PD1 (avidity possible); PD1 capture surface, RV29 as analyte (third entry of the cell; avidity possible)

T2 sequence (Q15116 25-167 limits assumed): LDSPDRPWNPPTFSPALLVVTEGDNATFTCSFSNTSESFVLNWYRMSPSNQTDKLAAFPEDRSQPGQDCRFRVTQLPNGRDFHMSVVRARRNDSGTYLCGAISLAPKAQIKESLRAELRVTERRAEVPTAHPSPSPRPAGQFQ
T1 sequence (P40933 49-162 limits assumed): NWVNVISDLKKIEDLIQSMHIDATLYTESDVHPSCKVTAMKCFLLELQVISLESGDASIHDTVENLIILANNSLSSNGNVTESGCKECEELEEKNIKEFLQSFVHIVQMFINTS

Row | Binder | Kd (human IL-15 [1]) [pM] | Kd (human PD-1 [2]) [pM] | Kd (human IL-15 [3]) [pM] | Kd (human PD-1 [4]) [pM] | Kd (human PD-1 [5]) [pM] | Kd (human PD-1 [6]) [pM]
1 | RV1 (antibody, human IgG1, lambda, V domains shown, also called anti-IL-15 antibody (RV1); DISC0280-derived monospecific parent antibody) VH: QVQLVQSGAEVKKPGASVKVSCKASGYSFSSFGISWVRQAPGQGLEWLGWISAFNGYTKYAQKFQDRVTMTTDTSTSTAYMELRSLRSDDTAVYYCARDPAAWPLQQSLAWFDPWGQGTMVTVSS VL: QSVLTQPPSASGTPGQRVTISCSGSTSNLKRNYVYWYQQLPGTAPKLLIYRDRRRPSGVPDRFSGSKSGTSASLAISGLRSEDEADYYCAWYDRELSEWVFGGGTKLTVLQ | 349 | – | – | – | – | –
2 | RV26 (bispecific antibody, human IgG1, lambda, L234A L235A, Heterodimeric IgG1 LALAPG, two anti-IL-15 Fabs and one anti-PD1 scFv (H1H2L1L1); also called fusion of 1 scFv to a HC of a bispecific antibody in Fab-Fab format (RV26)) heavy 1: QVQLVQSGAEVKKPGASVKVSCKASGYSFSSFGISWVRQAPGQGLEWLGWISAFNGYTKYAQKFQDRVTMTTDTSTSTAYMELRSLRSDDTAVYYCARDPAAWPLQQSLAWFDPWGQGTMVTVSSASTKGPSVFPLAPSSKSTSGGTAALGCLVKDYFPEPVTVSWNSGALTSGVHTFPAVLQSSGLYSLSSVVTVPSSSLGTQTYICNVNHKPSNTKVDKKVEPKSCDKTHTCPPCPAPEAAGGPSVFLFPPKPKDTLMISRTPEVTCVVVDVSHEDPEVKFNWYVDGVEVHNAKTKPREEQYNSTYRVVSVLTVLHQDWLNGKEYKCKVSNKALGAPIEKTISKAKGQPREPQVYVYPPSRDELTKNQVSLTCLVKGFYPSDIAVEWESNGQPENNYKTTPPVLDSDGSFALVSKLTVDKSRWQQGNVFSCSVMHEALHNHYTQKSLSLSPGKGGGGSGGGGSGGGGSGGGGSEIVLTQSPATLSLSPGERATLSCRASKGVSTSGYSYLHWYQQKPGQAPRLLIYLASYLESGVPARFSGSGSGTDFTLTISSLEPEDFAVYYCQHSRDLPLTFGCGTKVEIKGGSGGGSGGGSGGGSGGGSGQVQLVQSGVEVKKPGASVKVSCKASGYTFTNYYMYWVRQAPGQCLEWMGGINPSNGGTNFNEKFKNRVTLTTDSSTTTAYMELKSLQFDDTAVYYCARRDYRFDMGFDYWGQGTTVTVSS heavy 2: QVQLVQSGAEVKKPGASVKVSCKASGYSFSSFGISWVRQAPGQGLEWLGWISAFNGYTKYAQKFQDRVTMTTDTSTSTAYMELRSLRSDDTAVYYCARDPAAWPLQQSLAWFDPWGQGTMVTVSSASTKGPSVFPLAPSSKSTSGGTAALGCLVKDYFPEPVTVSWNSGALTSGVHTFPAVLQSSGLYSLSSVVTVPSSSLGTQTYICNVNHKPSNTKVDKKVEPKSCDKTHTCPPCPAPEAAGGPSVFLFPPKPKDTLMISRTPEVTCVVVDVSHEDPEVKFNWYVDGVEVHNAKTKPREEQYNSTYRVVSVLTVLHQDWLNGKEYKCKVSNKALGAPIEKTISKAKGQPREPQVYVLPPSRDELTKNQVSLLCLVKGFYPSDIAVEWESNGQPENNYLTWPPVLDSDGSFFLYSKLTVDKSRWQQGNVFSCSVMHEALHNHYTQKSLSLSPG light: not shown | 396 | 2190 | – | – | – | –
3 | RV15 (bispecific antibody, human IgG1, kappa, lambda, L234A L235A, Asymmetric IgG1 LALAPG heterodimer, one anti-PD1 Fab arm and one anti-IL-15 Fab arm (H1H2L1L2); also called bispecific antibody in a Fab-Fab format (RV15)) heavy 1: QVQLVQSGVEVKKPGASVKVSCKASGYTFTNYYMYWVRQAPGQGLEWMGGINPSNGGTNFNEKFKNRVTLTTDSSTTTAYMELKSLQFDDTAVYYCARRDYRFDMGFDYWGQGTTVTVSSASTKGPSVFPLAPSSKSTSGGTAALGCEVTDYFPEPVTVSWNSGALTSGVHTFPAVLESSGLYSLSSVVTVPSSSLGTQTYICNVNHKPSNTKVDKKVEPDSCDKTHTCPPCPAPEAAGGPSVFLFPPKPKDTLMISRTPEVTCVVVDVSHEDPEVKFNWYVDGVEVHNAKTKPREEQYNSTYRVVSVLTVLHQDWLNGKEYKCKVSNKALGAPIEKTISKAKGQPREPQVYVYPPSRDELTKNQVSLTCLVKGFYPSDIAVEWESNGQPENNYKTTPPVLDSDGSFALVSKLTVDKSRWQQGNVFSCSVMHEALHNHYTQKSLSLSPG light 1: EIVLTQSPATLSLSPGERATLSCRASKGVSTSGYSYLHWYQQKPGQAPRLLIYLASYLESGVPARFSGSGSGTDFTLTISSLEPEDFAVYYCQHSRDLPLTFGGGTKVEIKRTVAAPSVFIFPPKDERLKSGTASVVCLLNNFYPREAKVQWKVDNALQSGNSQESVTEQDSKDSTYSLSSRLTLSKADYEKHKVYACEVTHQGLSSPVTKSFNRGEC heavy 2: QVQLVQSGAEVKKPGASVKVSCKASGYSFSSFGISWVRQAPGQGLEWLGWISAFNGYTKYAQKFQDRVTMTTDTSTSTAYMELRSLRSDDTAVYYCARDPAAWPLQQSLAWFDPWGQGTMVTVSSASTKGPSVFPLRPSSKSTSGGTAALGCLVKDYFPEPVTVSWNSGALTSGVHTFPAVLQSSGLYSLKSVVTVPSSSLGTQTYICNVNHKPSNTKVDKKVEPKSCDKTHTCPPCPAPEAAGGPSVFLFPPKPKDTLMISRTPEVTCVVVDVSHEDPEVKFNWYVDGVEVHNAKTKPREEQYNSTYRVVSVLTVLHQDWLNGKEYKCKVSNKALGAPIEKTISKAKGQPREPQVYVLPPSRDELTKNQVSLLCLVKGFYPSDIAVEWESNGQPENNYLTWPPVLDSDGSFFLYSKLTVDKSRWQQGNVFSCSVMHEALHNHYTQKSLSLSPG light 2: QSVLTQPPSASGTPGQRVTISCSGSTSNLKRNYVYWYQQLPGTAPKLLIYRDRRRPSGVPDRFSGSKSGTSASLAISGLRSEDEADYYCAWYDRELSEWVFGGGTKLTVLQPKAAPSVTLFPPSDEELQANTATLVCLISDFYPGAVTVAWKADSSPVKAGVETTTPSKQSNNKYAAESELSLTPEQWKSHRSYSCQVTHEGSTVEKTVAPTECS | 108 | 3620 | – | – | – | –
4 | RV29 (bispecific antibody, human IgG1, kappa, L234A L235A, Dual variable domain format, IgG1 LALAPG; also called bispecific antibody in DVD format (RV29); bispecific anti-PD-1 x anti-IL-15 antibody) heavy: not shown light: QSVLTQPPSASGTPGQRVTISCSGSTSNLKRNYVYWYQQLPGTAPKLLIYRDRRRPSGVPDRFSGSKSGTSASLAISGLRSEDEADYYCAWYDRELSEWVFGGGTKLTVLGGGGSGGGGSEIVLTQSPATLSLSPGERATLSCRASKGVSTSGYSYLHWYQQKPGQAPRLLIYLASYLESGVPARFSGSGSGTDFTLTISSLEPEDFAVYYCQHSRDLPLTFGGGTKVEIKRTVAAPSVFIFPPSDEQLKSGTASVVCLLNNFYPREAKVQWKVDNALQSGNSQESVTEQDSKDSTYSLSSTLTLSKADYEKHKVYACEVTHQGLSSPVTKSFNRGEC | 114 | – | 339 | – | – | 2350

Other lines, results leading:

Row | Kd (human IL-15 [1]) [pM] | Kd (human PD-1 [2]) [pM] | Kd (human IL-15 [3]) [pM] | Kd (human PD-1 [4]) [pM] | Kd (human PD-1 [5]) [pM] | Kd (human PD-1 [6]) [pM] | Binder
5 | 180 | – | 717 | 163 | – | – | RV31 (bispecific antibody, human IgG1, kappa, lambda, L234A L235A, Dual Fab domain format (H1H1L1L1L2L2), IgG1 LALAPG; Purity 83 % main peak; O-glycosylation reported, likely in the inter-Fab linker) heavy: not shown light 1: EIVLTQSPATLSLSPGERATLSCRASKGVSTSGYSYLHWYQQKPGQAPRLLIYLASYLESGVPARFSGSGSGTDFTLTISSLEPEDFAVYYCQHSRDLPLTFGGGTKVEIKRTVAAPSVFIFPPKDERLKSGTASVVCLLNNFYPREAKVQWKVDNALQSGNSQESVTEQDSKDSTYSLSSRLTLSKADYEKHKVYACEVTHQGLSSPVTKSFNRGEC light 2: QSVLTQPPSASGTPGQRVTISCSGSTSNLKRNYVYWYQQLPGTAPKLLIYRDRRRPSGVPDRFSGSKSGTSASLAISGLRSEDEADYYCAWYDRELSEWVFGGGTKLTVLQPKAAPSVTLFPPSDEELQANTATLVCLISDFYPGAVTVAWKADSSPVKAGVETTTPSKQSNNKYAAESELSLTPEQWKSHRSYSCQVTHEGSTVEKTVAPTECS
6 | 108 | – | 352 | 67.8 | – | – | RV32 (bispecific antibody, human IgG1, kappa, lambda, L234A L235A, Dual Fab domain format (H1H1L1L1L2L2), IgG1 LALAPG; O-glycosylation reported, likely in the inter-Fab linker; also called bispecific antibody in dual Fab domain format (RV32); bispecific anti-PD-1 x anti-IL-15 antibody) heavy: not shown light 1: EIVLTQSPATLSLSPGERATLSCRASKGVSTSGYSYLHWYQQKPGQAPRLLIYLASYLESGVPARFSGSGSGTDFTLTISSLEPEDFAVYYCQHSRDLPLTFGGGTKVEIKRTVAAPSVFIFPPKDERLKSGTASVVCLLNNFYPREAKVQWKVDNALQSGNSQESVTEQDSKDSTYSLSSRLTLSKADYEKHKVYACEVTHQGLSSPVTKSFNRGEC light 2: QSVLTQPPSASGTPGQRVTISCSGSTSNLKRNYVYWYQQLPGTAPKLLIYRDRRRPSGVPDRFSGSKSGTSASLAISGLRSEDEADYYCAWYDRELSEWVFGGGTKLTVLQPKAAPSVTLFPPSDEELQANTATLVCLISDFYPGAVTVAWKADSSPVKAGVETTTPSKQSNNKYAAESELSLTPEQWKSHRSYSCQVTHEGSTVEKTVAPTECS
7 | 116 | – | 111 | 243 | 97000 | – | RV36 (bispecific antibody, human IgG1, kappa, L234A L235A, Dual variable domain format like RV29 but with a longer inter-Fv linker, IgG1 LALAPG) heavy: not shown light: QSVLTQPPSASGTPGQRVTISCSGSTSNLKRNYVYWYQQLPGTAPKLLIYRDRRRPSGVPDRFSGSKSGTSASLAISGLRSEDEADYYCAWYDRELSEWVFGGGTKLTVLGGGGSGGGGSGGGGSGGGGSEIVLTQSPATLSLSPGERATLSCRASKGVSTSGYSYLHWYQQKPGQAPRLLIYLASYLESGVPARFSGSGSGTDFTLTISSLEPEDFAVYYCQHSRDLPLTFGGGTKVEIKRTVAAPSVFIFPPSDEQLKSGTASVVCLLNNFYPREAKVQWKVDNALQSGNSQESVTEQDSKDSTYSLSSTLTLSKADYEKHKVYACEVTHQGLSSPVTKSFNRGEC
